In patent US20150210761A1 (SAMSUNG ELECTRONICS, published 2015):
Numbering of substitutions follows the chain as printed.

Assays:
Ang2 RBD mutant P452 = molecular target: T1, Ang2 RBD mutant P452 (human, UniProt O15123 276-496); assay: ELISA; antibody coated, FLAG-tagged RBD mutant, anti-FLAG-HRP detection
T1 chain: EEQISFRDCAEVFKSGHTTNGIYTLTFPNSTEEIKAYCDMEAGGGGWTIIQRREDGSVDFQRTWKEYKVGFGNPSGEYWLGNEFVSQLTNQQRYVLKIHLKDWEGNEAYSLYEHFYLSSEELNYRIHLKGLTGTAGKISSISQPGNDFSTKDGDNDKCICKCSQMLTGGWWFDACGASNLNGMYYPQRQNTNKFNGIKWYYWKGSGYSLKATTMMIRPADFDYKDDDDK

Ang2 RBD mutant Q418 = molecular target: T2, Ang2 RBD mutant Q418 (human, UniProt O15123 276-496); assay: as above
T2 chain: T1 chain with Q143A, A177P

Ang2 RBD mutant P419 = molecular target: T3, Ang2 RBD mutant P419 (human, UniProt O15123 276-496); assay: as above
T3 chain: T1 chain with P144A, A177P

Ang2 RBD mutant D448 = molecular target: T4, Ang2 RBD mutant D448 (human, UniProt O15123 276-496); assay: as above
T4 chain: T1 chain with D173A, A177P

Ang2 RBD mutant K468 = molecular target: T5, Ang2 RBD mutant K468 (human, UniProt O15123 276-496); assay: as above
T5 chain: T1 chain with A177P, K193A

[1] = molecular target: T6, mouse Ang2 (Accession # NP-031452) (R&D Systems) (mouse, UniProt O35608 19-496); assay: ELISA on coated mouse Ang2
T6 construct: Bought protein coated on the ELISA plate; also called mAng2
T6 sequence (looked up): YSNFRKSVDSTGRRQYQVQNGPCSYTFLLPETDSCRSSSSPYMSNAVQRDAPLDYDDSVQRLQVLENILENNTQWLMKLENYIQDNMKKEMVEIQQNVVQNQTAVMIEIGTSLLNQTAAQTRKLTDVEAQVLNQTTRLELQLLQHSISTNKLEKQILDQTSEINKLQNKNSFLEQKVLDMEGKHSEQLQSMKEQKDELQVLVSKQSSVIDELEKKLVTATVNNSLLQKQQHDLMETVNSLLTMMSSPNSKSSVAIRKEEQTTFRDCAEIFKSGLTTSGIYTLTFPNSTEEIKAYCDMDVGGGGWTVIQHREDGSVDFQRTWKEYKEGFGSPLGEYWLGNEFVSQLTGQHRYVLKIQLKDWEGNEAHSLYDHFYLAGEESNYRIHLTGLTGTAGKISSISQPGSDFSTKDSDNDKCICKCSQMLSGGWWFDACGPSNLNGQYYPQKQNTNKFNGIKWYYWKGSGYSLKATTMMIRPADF

[2] = molecular target: T6, mouse Ang2 (Accession # NP-031452) (R&D …); assay: ELISA on coated mouse Ang2; 50% binding concentration, which the filing calls Kd
Description: An ELISA was conducted to measure the binding affinity of the antibodies prepared in Example 2 to mouse Ang2(mAng2). MaxiSorp™ flat-bottom plate (Nunc) of 96-well was coated with 5-20 μg/ml of mouse Ang2 (Mouse Ang2; Accession # NP_{—}031452) (R&D Systems). Thereafter, the plate was washed five times with 0.05% (v/v) Tween-20-containing PBS (PBST) and then blocked with 1% (v/v) BSA (bovine serum albumin; Sigma)-containing PBS at a room temperature for 2 hour. Each of the anti-Ang2 antibodies was added to each well of the plate at various concentrations, and the plate was allowed to react at a room temperature for 2 hours.
Thereafter, the plate was washed five times with PBST. Then, a HRP-conjugated anti-mouse IgG antibody (Santacruz) diluted in 1% (v/v) BSA-containing PBS at a ratio of 1:1,000 (v/v) was added in an amount of 50 μl to each well to react at a room temperature for 1 hour and then, the plate was washed five times with PBST. Lastly, 100 μl of TMB substrate (Cell Signaling) was added to each well of the plate to induce color development for 3 min. and then, the reaction was ceased by the addition of 100 μl of Stop solution (Cell Signaling) and OD450 values were measured on a plate reader (Molecular Devices).
From the obtained results, 50% binding concentration (Kd) of the anti-Ang2 antibody to Ang2 protein is obtained, thereby measuring the binding intensity of each of the anti-Ang2 antibodies to Ang2.

B1: SAIT-ANG2-AB-m1A10 (antibody, V domains shown)
VH: QVQLQQSGAELMKPGASVKISCKATDYTFSSYWLEWLIQRPGHGLEWIGEILPGSGSTNYNEKFRGKATFTEDTSSNTAYMQLSSLTSEDSAVYYCARGNHNSYYYAMDYWGQGTSVTVSS
VL: DIVLTQSPASLAVSLGQRATISCRASESVDSYGNSFMHWYQQKPGQPPKLLIYRASNLDSGIPARFSGSGSRTDFTLTINPVEADDVATYYCQQSNEDPLTFGAGTKLELK
notes: also called hybridoma KCLRF-BP-00306
- Binding (%) (mutant Ang2 / native Ang2) (Ang2 RBD mutant P452): 105%
- Binding (%) (mutant Ang2 / native Ang2) (Ang2 RBD mutant Q418): 97.2%
- Binding (%) (mutant Ang2 / native Ang2) (Ang2 RBD mutant P419): 102%
- Binding (%) (mutant Ang2 / native Ang2) (Ang2 RBD mutant D448): 95.3%
- Binding (%) (mutant Ang2 / native Ang2) (Ang2 RBD mutant K468): 27.3%
- binding result [1]: no binding

B2: SAIT-ANG2-AB-m3E2 (antibody, V domains shown)
VH: EVQLQQSGAELVKPGASVKLSCTASGFNIKDPYIHWVKQRPEQGLEWIGRIDPANGNTKYDPKFQGKATITADTSSNTAYLQLSSLTSEDTAVYYCVRRWDGGGFDYWGQGTSVTVSS
VL: DIQMTQTTSSLSASLGDRVTISCRASQDISNYLNWYQQKPDGTVKLLIYYTSRLHSGVPSRFSGSGSGTDYSLTITNLEQEDIATYFCQQGNTLPWTFGGGTKLEIK
notes: also called hybridoma KCLRF-BP-00305
- Kd [2]: 130 nM

B3: SAIT-ANG2-AB-m8D3 (antibody, V domains shown)
VH: EVQLQQSGPELVKPGDSVKMSCKASGYTFTDYYMKWVRQSHGKSLQWVGEINPKNGDTFYNQIFKGKATLTVDKSSSTAYMQLTSLTSEDSAVYYCTRENDYDVGFFDYWGQGTSVTVSS
VL: TIVMTQTPKFLLVSAGDRITITCKASQSVSNDVAWYQQKPGQSPKLLIYYASNRYPGVPDRFTGSGYGTDFTFTISTVQAEDLAVYFCQQDYTSPWTFGGGTELEIK
notes: also called hybridoma KCLRF-BP-00308
- Kd [2]: 141 nM
